Results on eleven sequences are retold here after the supplement of paper PMC11316812.

± gives the standard deviation of the averaged measurements.

The test system of one data set is hTERT-HMEC. In words: percentage of EdU-negative (G0-arrested) nuclei per well, 72 h; higher = more G0 arrest. The following applies: reference: sequence is the full UniProt precursor, the tested protein was the secreted form or ectodomain.
The subject of the next data set is MCF7. The data set is described as above. The conditions noted are these: reference: sequence is the full UniProt precursor, the tested protein was the secreted form or ectodomain.
[1] abbreviates: protein concentration 0.0225 µM.
The mark [2] stands for this setting: protein concentration 0.03125 µM.
[3] abbreviates: protein concentration 0.3125 µM.
Setting [4] is: protein concentration 0.01725 µM.
The mark [5] stands for this setting: protein concentration 0.1725 µM.
Where [6] appears, read: protein concentration 0.0345714 µM.
Setting [7] is: protein concentration 0.345714 µM.
The mark [8] stands for this setting: protein concentration 0.01625 µM.
Where [9] appears, read: protein concentration 0.1625 µM.
The mark [10] stands for this setting: protein concentration 0.017475 µM.
Setting [11] is: protein concentration 0.17475 µM.
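Further: secreted proteins added to cultured cells, EdU pulse at the end, nuclei found by Hoechst imaging, EdU status from nuclear versus surrounding ring intensity ratio, PBS as neutral control.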

Consider “MESPSAPPHRWCIPWQRLLLTASLLTFWNPPTTAKLTIESTPFNVAEGKEVLLLVHNLPQHLFGYSWYKGERVDGNRQIIGYVIGTQQATPGPAYSGREIIYPNASLLIQNIIQNDTGFYTLHVIKSDLVNEEATGQFRVYPELPKPSISSNNSKPVEDKDAVAFTCEPETQDATYLWWVNNQSLPVSPRLQLSNGNRTLTLFNVTRNDTASYKCETQNPVSARRSDSVILNVLYGPDAPTISPLNTSYRSGENLNLSCHAASNPPAQYSWFVNGTFQQSTQELFIPNITVNNSGSYTCQAHNSDTGLNRTTVTTITVYAEPPKPFITSNNSNPVEDEDAVALTCEPEIQNTTYLWWVNNQSLPVSPRLQLSNDNRTLTLLSVTRNDVGPYECGIQNELSVDHSDPVILNVLYGPDDPTISPSYTYYRPGVNLSLSCHAASNPPAQYSWLIDGNIQQHTQELFISNITEKNSGLYTCQANNSASGHSRTTVKTITVSAELPKPSISSNNSKPVEDKDAVAFTCEPEAQNTTYLWWVNGQSLPVSPRLQLSNGNRTLTLFNVTRNDARAYVCGIQNSVSANRSDPVTLDVLYGPDTPIISPPDSSYLSGANLNLSCHSASNPSPQYSWRINGIPQQHTQVLFIAKITPNNNGTYACFVSNLATGRNNSIVKSITVSASGTSPGLSAGATVGIMIGVLVGVALI”, for which the “percentage of EdU-negative” value in the data set with hTERT-HMEC (setting [1]) was 5.67 ± 0.092%; in the data set with hTERT-HMEC (protein concentration 0.225 µM), 5.42 ± 0.42%; in the data set with MCF7 (setting [1]) it was 26.7 ± 2.2%; in the data set with MCF7 (protein concentration 0.225 µM) it was 25.3 ± 0.33%.
Consider “MESRGPLATSRLLLLLLLLLLRHTRQGWALRPVLPTQSAHDPPAVHLSNGPGQEPIAVMTFDLTKITKTSSSFEVRTWDPEGVIFYGDTNPKDDWFMLGLRDGRPEIQLHNHWAQLTVGAGPRLDDGRWHQVEVKMEGDSVLLEVDGEEVLRLRQVSGPLTSKRHPIMRIALGGLLFPASNLRLPLVPALDGCLRRDSWLDKQAEISASAPTSLRSCDVESNPGIFLPPGTQAEFNLRDIPQPHAEPWAFSLDLGLKQAAGSGHLLALGTPENPSWLSLHLQDQKVVLSSGSGPGLDLPLVLGLPLQLKLSMSRVVLSQGSKMKALALPPLGLAPLLNLWAKPQGRLFLGALPGEDSSTSFCLNGLWAQGQRLDVDQALNRSHEIWTHSCPQSPGNGTDASH”, for which the “percentage of EdU-negative” value is 4.94 ± 0.58% in the data set with hTERT-HMEC (setting [2]), 17.6 ± 1.6% in the data set on hTERT-HMEC (setting [3]), 21.8 ± 3% in the data set on MCF7 (setting [2]) and 23.55 ± 0.15% with MCF7 (setting [3]).
Take “MESRVLLRTFCLIFGLGAVWGLGVDPSLQIDVLTELELGESTTGVRQVPGLHNGTKAFLFQDTPRSIKASTATAEQFFQKLRNKHEFTILVTLKQTHLNSGVILSIHHLDHRYLELESSGHRNEVRLHYRSGSHRPHTEVFPYILADDKWHKLSLAISASHLILHIDCNKIYERVVEKPSTDLPLGTTFWLGQRNNAHGYFKGIMQDVQLLVMPQGFIAQCPDLNRTCPTCNDFHGLVQKIMELQDILAKTSAKLSRAEQRMNRLDQCYCERTCTMKGTTYREFESWIDGCKNCTCLNGTIQCETLICPNPDCPLKSALAYVDGKCCKECKSICQFQGRTYFEGERNTVYSSSGVCVLYECKDQTMKLVESSGCPALDCPESHQITLSHSCCKVCKGYDFCSERHNCMENSICRNLNDRAVCSCRDGFRALREDNAYCEDIDECAEGRHYCRENTMCVNTPGSFMCICKTGYIRIDDYSCTEHDECITNQHNCDENALCFNTVGGHNCVCKPGYTGNGTTCKAFCKDGCRNGGACIAANVCACPQGFTGPSCETDIDECSDGFVQCDSRANCINLPGWYHCECRDGYHDNGMFSPSGESCEDIDECGTGRHSCANDTICFNLDGGYDCRCPHGKNCTGDCIHDGKVKHNGQIWVLENDRCSVCSCQNGFVMCRRMVCDCENPTVDLFCCPECDPRLSSQCLHQNGETLYNSGDTWVQNCQQCRCLQGEVDCWPLPCPDVECEFSILPENECCPRCVTDPCQADTIRNDITKTCLDEMNVVRFTGSSWIKHGTECTLCQCKNGHICCSVDPQCLQEL”: the “percentage of EdU-negative” value in the data set on hTERT-HMEC (setting [4]) was 5.41 ± 0.14%; with hTERT-HMEC (setting [5]) it was 12.7 ± 0.33%; with MCF7 (setting [4]) it was 24.4 ± 2.6%; in the data set on MCF7 (setting [5]), 28.9 ± 0.7%.
As to “MESSRVRLLPLLGAALLLMLPLLGTRAQEDAELQPRALDIYSAVDDASHEKELIEALQEVLKKLKSKRVPIYEKKYGQVPMCDAGEQCAVRKGARIGKLCDCPRGTSCNSFLLKCL”, the “percentage of EdU-negative” value in the data set with hTERT-HMEC (setting [1]) worked out at 5.12 ± 0.53%; in the data set with hTERT-HMEC (protein concentration 0.225 µM), 5.36 ± 0.64%; with MCF7 (setting [1]), 28.1 ± 1.3%; in the data set on MCF7 (protein concentration 0.225 µM), 24.6 ± 0.93%.
With “METPAWPRVPRPETAVARTLLLGWVFAQVAGASGTTNTVAAYNLTWKSTNFKTILEWEPKPVNQVYTVQISTKSGDWKSKCFYTTDTECDLTDEIVKDVKQTYLARVFSYPAGNVESTGSAGEPLYENSPEFTPYLETNLGQPTIQSFEQVGTKVNVTVEDERTLVRRNNTFLSLRDVFGKDLIYTLYYWKSSSSGKKTAKTNTNEFLIDVDKGENYCFSVQAVIPSRTVNRKSTDSPVECMGQEKGEFREIFYIIGAVVFVVIILVIILAISLHKCRKAGVGQSWKENSPLNVS”, the “percentage of EdU-negative” value in the data set with hTERT-HMEC (setting [6]) stood at 4.27 ± 0.75%; in the data set on hTERT-HMEC (setting [7]), 6.032 ± 0.015%; in the data set on MCF7 (setting [6]), 24.03 ± 0.11%; with MCF7 (setting [7]), 22.3 ± 1.8%.
Consider “MEVTCLLLLALIPFHCRGQGVYAPAQAQIVHAGQACVVKEDNISERVYTIREGDTLMLQCLVTGHPRPQVRWTKTAGSASDKFQETSVFNETLRIERIARTQGGRYYCKAENGVGVPAIKSIRVDVQYLDEPMLTVHQTVSDVRGNFYQEKTVFLRCTVNSNPPARFIWKRGSDTLSHSQDNGVDIYEPLYTQGETKVLKLKNLRPQDYASYTCQVSVRNVCGIPDKAITFRLTNTTAPPALKLSVNETLVVNPGENVTVQCLLTGGDPLPQLQWSHGPGPLPLGALAQGGTLSIPSVQARDSGYYNCTATNNVGNPAKKTVNLLVRSMKNATFQITPDVIKESENIQLGQDLKLSCHVDAVPQEKVTYQWFKNGKPARMSKRLLVTRNDPELPAVTSSLELIDLHFSDYGTYLCMASFPGAPVPDLSVEVNISSETVPPTISVPKGRAVVTVREGSPAELQCEVRGKPRPPVLWSRVDKEAALLPSGLPLEETPDGKLRLERVSRDMSGTYRCQTARYNGFNVRPREAQVQLNVQFPPEVEPSSQDVRQALGRPVLLRCSLLRGSPQRIASAVWRFKGQLLPPPPVVPAAAEAPDHAELRLDAVTRDSSGSYECSVSNDVGSAACLFQVSAKAYSPEFYFDTPNPTRSHKLSKNYSYVLQWTQREPDAVDPVLNYRLSIRQLNQHNAVVKAIPVRRVEKGQLLEYILTDLRVPHSYEVRLTPYTTFGAGDMASRIIHYTEPINSPNLSDNTCHFEDEKICGYTQDLTDNFDWTRQNALTQNPKRSPNTGPPTDISGTPEGYYMFIETSRPRELGDRARLVSPLYNASAKFYCVSFFYHMYGKHIGSLNLLVRSRNKGALDTHAWSLSGNKGNVWQQAHVPISPSGPFQIIFEGVRGPGYLGDIAIDDVTLKKGECPRKQTDPNKVVVMPGSGAPCQSSPQLWGPMAIFLLALQR [Q8NFP4]”, for which the “percentage of EdU-negative” value with hTERT-HMEC (setting [8]) came out at 4.84 ± 1.1%; with hTERT-HMEC (setting [9]), 5.63 ± 0.16%; with MCF7 (setting [8]), 25.1 ± 2%; in the data set on MCF7 (setting [9]), 26.2 ± 1.5%.
For the sequence “MEWPARLCGLWALLLCAGGGGGGGGAAPTETQPPVTNLSVSVENLCTVIWTWNPPEGASSNCSLWYFSHFGDKQDKKIAPETRRSIEVPLNERICLQVGSQCSTNESEKPSILVEKCISPPEGDPESAVTELQCIWHNLSYMKCSWLPGRNTSPDTNYTLYYWHRSLEKIHQCENIFREGQYFGCSFDLTKVKDSSFEQHSVQIMVKDNAGKIKPSFNIVPLTSRVKPDPPHIKNLSFHNDDLYVQWENPQNFISRCLFYEVEVNNSQTETHNVFYVQEAKCENPEFERNVENTSCFMVPGVLPDTLNTVRIRVKTNKLCYEDDKLWSNWSQEMSIGKKRNSTLYITMLLIVPVIVAGAIIVLLLYLKRLKIIIFPPIPDPGKIFKEMFGDQNDDTLHWKKYDIYEKQTKEETDSVVLIENLKKASQ”, the “percentage of EdU-negative” value was 5.5 ± 0.74% in the data set with hTERT-HMEC (setting [10]), 5.19 ± 0.27% in the data set on hTERT-HMEC (setting [11]), 26.4 ± 0.86% in the data set on MCF7 (setting [10]) and 26.6 ± 2% in the data set with MCF7 (setting [11]).
“MEYQILKMSLCLFILLFLTPGILCICPLQCICTERHRHVDCSGRNLSTLPSGLQENIIHLNLSYNHFTDLHNQLTQYTNLRTLDISNNRLESLPAHLPRSLWNMSAANNNIKLLDKSDTAYQWNLKYLDVSKNMLEKVVLIKNTLRSLEVLNLSSNKLWTVPTNMPSKLHIVDLSNNSLTQILPGTLINLTNLTHLYLHNNKFTFIPDQSFDQLFQLQEITLYNNRWSCDHKQNITYLLKWMMETKAHVIGTPCSTQISSLKEHNMYPTPSGFTSSLFTVSGMQTVDTINSLSVVTQPKVTKIPKQYRTKETTFGATLSKDTTFTSTDKAFVPYPEDTSTETINSHEAAAATLTIHLQDGMVTNTSLTSSTKSSPTPMTLSITSGMPNNFSEMPQQSTTLNLWREETTTNVKTPLPSVANAWKVNASFLLLLNVVVMLAV”: the “percentage of EdU-negative” value in the data set on hTERT-HMEC (setting [1]) amounted to 5.851 ± 0.022%; in the data set with hTERT-HMEC (protein concentration 0.225 µM), 10.4 ± 1.5%; with MCF7 (setting [1]), 24.1 ± 0.32%; in the data set with MCF7 (protein concentration 0.225 µM) it was 27.6 ± 1.6%.
With “MFCPLKLILLPVLLDYSLGLNDLNVSPPELTVHVGDSALMGCVFQSTEDKCIFKIDWTLSPGEHAKDEYVLYYYSNLSVPIGRFQNRVHLMGDILCNDGSLLLQDVQEADQGTYICEIRLKGESQVFKKAVVLHVLPEEPKELMVHVGGLIQMGCVFQSTEVKHVTKVEWIFSGRRAKEEIVFRYYHKLRMSVEYSQSWGHFQNRVNLVGDIFRNDGSIMLQGVRESDGGNYTCSIHLGNLVFKKTIVLHVSPEEPRTLVTPAALRPLVLGGNQLVIIVGIVCATILLLPVLILIVKKTCGNKSSVNSTVLVKNTKKTNPEIKEKPCHFERCEGEKHIYSPIIVREVIEEEEPSEKSEATYMTMHPVWPSLRSDRNNSLEKKSGGGMPKTQQAF [Q86YT9]”, the “percentage of EdU-negative” value with hTERT-HMEC (setting [1]) stood at 4.64 ± 0.38%; with hTERT-HMEC (protein concentration 0.225 µM), 5.35 ± 1.2%; in the data set with MCF7 (setting [1]) it was 23.21 ± 0.041%; in the data set with MCF7 (protein concentration 0.225 µM), 24.8 ± 2.1%.
Consider “MFFWCACCLMVAWRVSASDAEHCPELPPVDNSIFVAKEVEGQILGTYVCIKGYHLVGKKTLFCNASKEWDNTTTECRLGHCPDPVLVNGEFSSSGPVNVSDKITFMCNDHYILKGSNRSQCLEDHTWAPPFPICKSRDCDPPGNPVHGYFEGNNFTLGSTISYYCEDRYYLVGVQEQQCVDGEWSSALPVCKLIQEAPKPECEKALLAFQESKNLCEAMENFMQQLKESGMTMEELKYSLELKKAELKAKLL”, for which the “percentage of EdU-negative” value in the data set with hTERT-HMEC (setting [1]) was 5.33 ± 0.68%; with hTERT-HMEC (protein concentration 0.225 µM) it was 12 ± 1.5%; in the data set with MCF7 (setting [1]), 24.2 ± 1.2%; with MCF7 (protein concentration 0.225 µM) it was 27.8 ± 3.5%.
The like results for “MFHQIWAALLYFYGIILNSIYQCPEHSQLTTLGVDGKEFPEVHLGQWYFIAGAAPTKEELATFDPVDNIVFNMAAGSAPMQLHLRATIRMKDGLCVPRKWIYHLTEGSTDLRTEGRPDMKTELFSSSCPGGIMLNETGQGYQRFLLYNRSPHPPEKCVEEFKSLTSCLDSKAFLLTPRNQEACELSNN” were, in that order, 4.08 ± 0.27%, 9.42 ± 0.84%, 23.57 ± 0.056% and 30.2 ± 0.5%.
